Reference: patent US20230151095A1 (published 2023)

B1: XENP41032 (antibody)
chain 1: EVQLLESGGGLVQPGGSLRLSCAVSGFSLSSYGVIWVRQAPGKGLEYVSWVSSGGSTNYASSVKGRFTISRDTSKNTVYLQMNSLRAEDTAVYFCARGATNSGTDIWGPGTLVTVSSASTKGPSVFPLAPSSKSTSGGTAALGCLVKDYFPEPVTVSWNSGALTSGVHTFPAVLQSSGLYSLSSVVTVPSSSLGTQTYICNVNHKPSDTKVDKKVEPKSCDKTHTCPPCPAPELLGGPDVFLFPPKPKDTLMISRTPEVTCVVVDVSHEDPEVKFNWYVDGVEVHNAKTKPREEEYNSTYRVVSVLTVLHQDWLNGKEYKCKVSNKALPAPEEKTISKAKGQPREPQVYTLPPSREEMTKNQVSLTCDVSGFYPSDIAVEWESDGQPENNYKTTPPVLDSDGSFFLYSKLTVDKSRWEQGDVFSCSVMHEALHNHYTQKSLSLSPGK
chain 2: EVQLLESGGGLVQPGGSLRLSCAVSGFSLSSYGVIWVRQAPGKGLEYVSWVSSGGSTNYASSVKGRFTISRDTSKNTVYLQMNSLRAEDTAVYFCARGATNSGTDIWGPGTLVTVSSGKPGSGKPGSGKPGSGKPGSDIVMTQSPSSLSASVGDRVTITCRASQSINSWLSWYQQKPGKPPKLLIYGASNLASGVPSRFKGSGSGTDFTLTISSLQPEDFATYYCQNNYGIIAAGATFGGGTKVEIKEPKSSDKTHTCPPCPAPELLGGPSVFLFPPKPKDTLMISRTPEVTCVVVDVSHEDPEVKFNWYVDGVEVHNAKTKPREEQYNSTYRVVSVLTVLHQDWLNGKEYKCKVSNKALPAPEEKTISKAKGQPREPQVYTLPPSREQMTKNQVKLTCLVKGFYPSDIAVEWESNGQPENNYKTTPPVLDSDGSFFLYSKLTVDKSRWQQGNVFSCSVMHEALHNHYTQKSLSLSPGK
chain 3: DIVMTQSPSSLSASVGDRVTITCRASQSINSWLSWYQQKPGKPPKLLIYGASNLASGVPSRFKGSGSGTDFTLTISSLQPEDFATYYCQNNYGIIAAGATFGGGTKVEIKRTVAAPSVFIFPPSDEQLKSGTASVVCLLNNFYPREAKVQWKVDNALQSGNSQESVTEQDSKDSTYSLSSTLTLSKADYEKHKVYACEVTHQGLSSPVTKSFNRGEC
B2: XENP41026 (antibody)
chain 1: EVQLLESGGGLVQPGGSLRLSCAVSGFSLSSYGVIWVRQAPGKGLEYVSWVSSGGSTNYASSVKGRFTISRDTSKNTVYLQMNSLRAEDTAVYFCARGATNSGTDIWGPGTLVTVSSASTKGPSVFPLAPSSKSTSGGTAALGCLVKDYFPEPVTVSWNSGALTSGVHTFPAVLQSSGLYSLSSVVTVPSSSLGTQTYICNVNHKPSDTKVDKKVEPKSCDKTHTCPPCPAPELLGGPSVFLFPPKPKDTLMISRTPEVTCVVVDVSHEDPEVKFNWYVDGVEVHNAKTKPREEEYNSTYRVVSVLTVLHQDWLNGKEYKCKVSNKALPAPIEKTISKAKGQPREPQVYTLPPSREEMTKNQVSLTCDVSGFYPSDIAVEWESDGQPENNYKTTPPVLDSDGSFFLYSKLTVDKSRWEQGDVFSCSVMHEALHNHYTQKSLSLSPGK
chain 2: EVQLLESGGGLVQPGGSLRLSCAVSGFSLSSYGVIWVRQAPGKGLEYVSWVSSGGSTNYASSVKGRFTISRDTSKNTVYLQMNSLRAEDTAVYFCARGATNSGTDIWGPGTLVTVSSGKPGSGKPGSGKPGSGKPGSDIVMTQSPSSLSASVGDRVTITCRASQSINSWLSWYQQKPGKPPKLLIYGASNLASGVPSRFKGSGSGTDFTLTISSLQPEDFATYYCQNNYGIIAAGATFGGGTKVEIKEPKSSDKTHTCPPCPAPELLGGPDVFLFPPKPKDTLMISRTPEVTCVVVDVSHEDPEVKFNWYVDGVEVHNAKTKPREEQYNSTYRVVSVLTVLHQDWLNGKEYKCKVSNKALPAPIEKTISKAKGQPREPQVYTLPPSREQMTKNQVKLTCLVKGFYPSDIAVEWESNGQPENNYKTTPPVLDSDGSFFLYSKLTVDKSRWQQGNVFSCSVMHEALHNHYTQKSLSLSPGK
chain 3: DIVMTQSPSSLSASVGDRVTITCRASQSINSWLSWYQQKPGKPPKLLIYGASNLASGVPSRFKGSGSGTDFTLTISSLQPEDFATYYCQNNYGIIAAGATFGGGTKVEIKRTVAAPSVFIFPPSDEQLKSGTASVVCLLNNFYPREAKVQWKVDNALQSGNSQESVTEQDSKDSTYSLSSTLTLSKADYEKHKVYACEVTHQGLSSPVTKSFNRGEC
B3: XENP41024 (antibody)
chain 1: EVQLLESGGGLVQPGGSLRLSCAVSGFSLSSYGVIWVRQAPGKGLEYVSWVSSGGSTNYASSVKGRFTISRDTSKNTVYLQMNSLRAEDTAVYFCARGATNSGTDIWGPGTLVTVSSASTKGPSVFPLAPSSKSTSGGTAALGCLVKDYFPEPVTVSWNSGALTSGVHTFPAVLQSSGLYSLSSVVTVPSSSLGTQTYICNVNHKPSDTKVDKKVEPKSCDKTHTCPPCPAPELLGGPSVFLFPPKPKDTLMISRTPEVTCVVVDVSHEDPEVKFNWYVDGVEVHNAKTKPREEEYNSTYRVVSVLTVLHQDWLNGKEYKCKVSNKALPAPEEKTISKAKGQPREPQVYTLPPSREEMTKNQVSLTCDVSGFYPSDIAVEWESDGQPENNYKTTPPVLDSDGSFFLYSKLTVDKSRWEQGDVFSCSVMHEALHNHYTQKSLSLSPGK
chain 2: EVQLLESGGGLVQPGGSLRLSCAVSGFSLSSYGVIWVRQAPGKGLEYVSWVSSGGSTNYASSVKGRFTISRDTSKNTVYLQMNSLRAEDTAVYFCARGATNSGTDIWGPGTLVTVSSGKPGSGKPGSGKPGSGKPGSDIVMTQSPSSLSASVGDRVTITCRASQSINSWLSWYQQKPGKPPKLLIYGASNLASGVPSRFKGSGSGTDFTLTISSLQPEDFATYYCQNNYGIIAAGATFGGGTKVEIKEPKSSDKTHTCPPCPAPELLGGPSVFLFPPKPKDTLMISRTPEVTCVVVDVSHEDPEVKFNWYVDGVEVHNAKTKPREEQYNSTYRVVSVLTVLHQDWLNGKEYKCKVSNKALPAPEEKTISKAKGQPREPQVYTLPPSREQMTKNQVKLTCLVKGFYPSDIAVEWESNGQPENNYKTTPPVLDSDGSFFLYSKLTVDKSRWQQGNVFSCSVMHEALHNHYTQKSLSLSPGK
chain 3: DIVMTQSPSSLSASVGDRVTITCRASQSINSWLSWYQQKPGKPPKLLIYGASNLASGVPSRFKGSGSGTDFTLTISSLQPEDFATYYCQNNYGIIAAGATFGGGTKVEIKRTVAAPSVFIFPPSDEQLKSGTASVVCLLNNFYPREAKVQWKVDNALQSGNSQESVTEQDSKDSTYSLSSTLTLSKADYEKHKVYACEVTHQGLSSPVTKSFNRGEC
B4: XENP41029 (antibody)
chain 1: EVQLLESGGGLVQPGGSLRLSCAVSGFSLSSYGVIWVRQAPGKGLEYVSWVSSGGSTNYASSVKGRFTISRDTSKNTVYLQMNSLRAEDTAVYFCARGATNSGTDIWGPGTLVTVSSASTKGPSVFPLAPSSKSTSGGTAALGCLVKDYFPEPVTVSWNSGALTSGVHTFPAVLQSSGLYSLSSVVTVPSSSLGTQTYICNVNHKPSDTKVDKKVEPKSCDKTHTCPPCPAPELLGGPDVFLFPPKPKDTLMISRTPEVTCVVVDVSHEDPEVKFNWYVDGVEVHNAKTKPREEEYNSTYRVVSVLTVLHQDWLNGKEYKCKVSNKALPAPIEKTISKAKGQPREPQVYTLPPSREEMTKNQVSLTCDVSGFYPSDIAVEWESDGQPENNYKTTPPVLDSDGSFFLYSKLTVDKSRWEQGDVFSCSVMHEALHNHYTQKSLSLSPGK
chain 2: not shown
chain 3: DIVMTQSPSSLSASVGDRVTITCRASQSINSWLSWYQQKPGKPPKLLIYGASNLASGVPSRFKGSGSGTDFTLTISSLQPEDFATYYCQNNYGIIAAGATFGGGTKVEIKRTVAAPSVFIFPPSDEQLKSGTASVVCLLNNFYPREAKVQWKVDNALQSGNSQESVTEQDSKDSTYSLSSTLTLSKADYEKHKVYACEVTHQGLSSPVTKSFNRGEC
B5: XENP41036 (antibody)
chain 1: EVQLLESGGGLVQPGGSLRLSCAVSGFSLSSYGVIWVRQAPGKGLEYVSWVSSGGSTNYASSVKGRFTISRDTSKNTVYLQMNSLRAEDTAVYFCARGATNSGTDIWGPGTLVTVSSASTKGPSVFPLAPSSKSTSGGTAALGCLVKDYFPEPVTVSWNSGALTSGVHTFPAVLQSSGLYSLSSVVTVPSSSLGTQTYICNVNHKPSDTKVDKKVEPKSCDKTHTCPPCPAPELLGGPSVFLFPPKPKDTLMISRTPEVTCVVVDVSHEDPEVKFNWYVDGVEVHNAKTKPREEEYNSTYRVVSVLTVLHQDWLNGKEYKCKVSNKALPAPEEKTISKAKGQPREPQVYTLPPSREEMTKNQVSLTCDVSGFYPSDIAVEWESDGQPENNYKTTPPVLDSDGSFFLYSKLTVDKSRWEQGDVFSCSVMHEALHNHYTQKSLSLSPGK
chain 2: EVQLLESGGGLVQPGGSLRLSCAVSGFSLSSYGVIWVRQAPGKGLEYVSWVSSGGSTNYASSVKGRFTISRDTSKNTVYLQMNSLRAEDTAVYFCARGATNSGTDIWGPGTLVTVSSGKPGSGKPGSGKPGSGKPGSDIVMTQSPSSLSASVGDRVTITCRASQSINSWLSWYQQKPGKPPKLLIYGASNLASGVPSRFKGSGSGTDFTLTISSLQPEDFATYYCQNNYGIIAAGATFGGGTKVEIKEPKSSDKTHTCPPCPAPELLGGPDVFLFPPKPKDTLMISRTPEVTCVVVDVSHEDPEVKFNWYVDGVEVHNAKTKPREEQYNSTYRVVSVLTVLHQDWLNGKEYKCKVSNKALPAPIEKTISKAKGQPREPQVYTLPPSREQMTKNQVKLTCLVKGFYPSDIAVEWESNGQPENNYKTTPPVLDSDGSFFLYSKLTVDKSRWQQGNVFSCSVMHEALHNHYTQKSLSLSPGK
chain 3: DIVMTQSPSSLSASVGDRVTITCRASQSINSWLSWYQQKPGKPPKLLIYGASNLASGVPSRFKGSGSGTDFTLTISSLQPEDFATYYCQNNYGIIAAGATFGGGTKVEIKRTVAAPSVFIFPPSDEQLKSGTASVVCLLNNFYPREAKVQWKVDNALQSGNSQESVTEQDSKDSTYSLSSTLTLSKADYEKHKVYACEVTHQGLSSPVTKSFNRGEC
B6: XENP41023 (antibody)
chain 1: EVQLLESGGGLVQPGGSLRLSCAVSGFSLSSYGVIWVRQAPGKGLEYVSWVSSGGSTNYASSVKGRFTISRDTSKNTVYLQMNSLRAEDTAVYFCARGATNSGTDIWGPGTLVTVSSASTKGPSVFPLAPSSKSTSGGTAALGCLVKDYFPEPVTVSWNSGALTSGVHTFPAVLQSSGLYSLSSVVTVPSSSLGTQTYICNVNHKPSDTKVDKKVEPKSCDKTHTCPPCPAPELLGGPDVFLFPPKPKDTLMISRTPEVTCVVVDVSHEDPEVKFNWYVDGVEVHNAKTKPREEEYNSTYRVVSVLTVLHQDWLNGKEYKCKVSNKALPAPIEKTISKAKGQPREPQVYTLPPSREEMTKNQVSLTCDVSGFYPSDIAVEWESDGQPENNYKTTPPVLDSDGSFFLYSKLTVDKSRWEQGDVFSCSVMHEALHNHYTQKSLSLSPGK
chain 2: EVQLLESGGGLVQPGGSLRLSCAVSGFSLSSYGVIWVRQAPGKGLEYVSWVSSGGSTNYASSVKGRFTISRDTSKNTVYLQMNSLRAEDTAVYFCARGATNSGTDIWGPGTLVTVSSGKPGSGKPGSGKPGSGKPGSDIVMTQSPSSLSASVGDRVTITCRASQSINSWLSWYQQKPGKPPKLLIYGASNLASGVPSRFKGSGSGTDFTLTISSLQPEDFATYYCQNNYGIIAAGATFGGGTKVEIKEPKSSDKTHTCPPCPAPELLGGPDVFLFPPKPKDTLMISRTPEVTCVVVDVSHEDPEVKFNWYVDGVEVHNAKTKPREEQYNSTYRVVSVLTVLHQDWLNGKEYKCKVSNKALPAPIEKTISKAKGQPREPQVYTLPPSREQMTKNQVKLTCLVKGFYPSDIAVEWESNGQPENNYKTTPPVLDSDGSFFLYSKLTVDKSRWQQGNVFSCSVMHEALHNHYTQKSLSLSPGK
chain 3: DIVMTQSPSSLSASVGDRVTITCRASQSINSWLSWYQQKPGKPPKLLIYGASNLASGVPSRFKGSGSGTDFTLTISSLQPEDFATYYCQNNYGIIAAGATFGGGTKVEIKRTVAAPSVFIFPPSDEQLKSGTASVVCLLNNFYPREAKVQWKVDNALQSGNSQESVTEQDSKDSTYSLSSTLTLSKADYEKHKVYACEVTHQGLSSPVTKSFNRGEC

The binders below were run against CD16 (UniProt P08637 17-208).
Sequence of CD16 (P08637 17-208): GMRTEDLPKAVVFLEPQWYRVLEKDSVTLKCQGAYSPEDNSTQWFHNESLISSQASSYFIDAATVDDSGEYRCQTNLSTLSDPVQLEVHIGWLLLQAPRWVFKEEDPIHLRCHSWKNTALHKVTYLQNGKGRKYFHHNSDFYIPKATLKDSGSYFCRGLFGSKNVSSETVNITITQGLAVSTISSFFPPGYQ

Going from B1 to B2, the Kd rises from 60.2 nM to 219 nM (3.6-fold).

Compared with B3, B4 is 1.9-fold higher in Kd: 120 nM for the first, 229 nM for the second. The first binds more tightly here.

B5 and B6 are within 1.5-fold of each other in Kd: 104 nM for the first, 102 nM for the second.
